Data set [1] concerns the target T1, NalC-His (Pseudomonas aeruginosa K767, UniProt Q9HXS0 1-213). Briefly: EMSA; 300-2000 ng NalC-His, 40 ng DNA. The following applies: protein: recombinant; tags: C-terminal His (pET23a); chain copies: 2; blunt. A general note: In EMSA bound probe runs differently from free probe, usually more slowly.
In data set [2] the target is T1, NalC-His. Briefly: EMSA; data not shown. The following applies: protein: recombinant; tags: C-terminal His (pET23a); chain copies: 2.

This note sets out measurements from PMC3290565, “Pentachlorophenol Induction of the Pseudomonas aeruginosa mexAB-oprM Efflux Operon: Involvement of Repressors NalC and MexR and the Antirepressor ArmR”.

B1: NalC-1 (endpoints III) (dsDNA)
DNA 1: TGGTCATTTAAGAACTGTATCGTACAGTACTGTTTTGGCAA
DNA 2: TTGCCAAAACAGTACTGTACGATACAGTTCTTAAATGACCA
On to B1, for which the binding result with NalC-His [1] is on record as “binds”.

B2: NalC-2 (endpoints IV) (dsDNA)
DNA 1: TTGGCAAGCACTTCCGCTCATTCCTCCGCCTTGCCTCCCGC
DNA 2: GCGGGAGGCAAGGCGGAGGAATGAGCGGAAGTGCTTGCCAA
Consider B2, for which the binding result with NalC-His [1] is reported as “no binding”.

B3: 21-bp inverted repeat only (dsDNA)
DNA 1: AGAACTGTATCGTACAGTACT
DNA 2: AGTACTGTACGATACAGTTCT
For B3, in the data set with NalC-His [2], the binding result is “no binding”.
